Assay results taken from PMC5566480.

What was measured:
[1] = target: Recombinant human Toll-like receptor 2 (rTLR2) (UniProt O60603); assay: ELISA; competition: synthesized peptides (1 μM, and dose-dependent for IC50) against the binding of rLipL32WT to rTLR2
[2] = target: Recombinant human Toll-like receptor 2 (rTLR2) (UniProt O60603); assay: AFM force spectroscopy; rTLR2 covalently fixed on mica, LipL32 or variant coupled to the AFM tip (glutaraldehyde); force-distance curves, maximum distribution force and binding frequency; anti-TLR2 antibody as neutralising control
[3] = target: Recombinant human Toll-like receptor 2 (rTLR2) (UniProt O60603); assay: ELISA; dose-dependent; rTLR2 coated, LipL32 variants 0 to 2 μM in PBS, 90 min at 37 °C, anti-His6 detection; in the presence of 1 µM Ca2+; Kd from a one-site fit
[4] = target: Recombinant human Toll-like receptor 2 (rTLR2) (UniProt O60603); assay: ELISA; dose-dependent; rTLR2 coated, LipL32 variants 0 to 2 μM in PBS, 90 min at 37 °C, anti-His6 detection; in the presence of 1 µM EGTA; Kd from a one-site fit
[5] = target: Recombinant human Toll-like receptor 2 (rTLR2) (UniProt O60603); assay: ELISA; details: parent: est. 0.37; read off a plot

Recombinant human Toll-like receptor 2 (rTLR2), sequence (O60603 21-784): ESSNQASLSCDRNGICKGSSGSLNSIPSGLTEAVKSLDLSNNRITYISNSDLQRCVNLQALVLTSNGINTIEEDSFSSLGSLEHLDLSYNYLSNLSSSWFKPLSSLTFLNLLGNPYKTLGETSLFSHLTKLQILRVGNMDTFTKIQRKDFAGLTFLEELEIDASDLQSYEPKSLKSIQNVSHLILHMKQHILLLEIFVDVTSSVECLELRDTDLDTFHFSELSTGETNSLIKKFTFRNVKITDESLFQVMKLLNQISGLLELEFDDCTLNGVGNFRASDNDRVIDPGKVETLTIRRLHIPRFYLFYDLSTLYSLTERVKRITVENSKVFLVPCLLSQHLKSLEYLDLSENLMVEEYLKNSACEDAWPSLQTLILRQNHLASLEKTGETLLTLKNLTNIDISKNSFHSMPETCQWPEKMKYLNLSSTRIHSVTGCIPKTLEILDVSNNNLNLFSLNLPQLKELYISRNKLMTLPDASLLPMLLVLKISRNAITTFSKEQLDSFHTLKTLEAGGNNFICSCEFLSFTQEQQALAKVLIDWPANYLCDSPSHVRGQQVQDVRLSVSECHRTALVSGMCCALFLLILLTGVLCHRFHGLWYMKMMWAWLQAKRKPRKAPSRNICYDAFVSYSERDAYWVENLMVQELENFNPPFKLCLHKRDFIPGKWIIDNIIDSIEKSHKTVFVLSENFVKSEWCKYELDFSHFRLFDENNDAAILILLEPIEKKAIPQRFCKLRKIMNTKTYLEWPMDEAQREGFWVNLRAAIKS

Question: Which IC50 [1] does the source give for “C25 peptide (248–272 residues of LipL32)” here?
Answer: The IC50 was 140 nM.

Question: Which IC50 [1] does the source give for N20 peptide (1–20 residues of LipL32) here?
Answer: The IC50 was 90 nM.

Question: N50 peptide (1–50 residues of LipL32) was tested. Which IC50 [1] did it give?
Answer: The IC50 was 70 nM.

Question: For “Recombinant LipL32 wild type, mature form (rLipL32; 21-272) (natural protein)”, which maximum distribution force (AFM) [2] is on record?
Answer: The maximum distribution force (AFM) was 55.3 pN.

Question: And the Kd [3]?
Answer: The Kd was 130 nM.

Question: What about the Kd [4] of the same substance?
Answer: Its Kd is 450 nM.

Question: For “Recombinant LipL32 wild type, mature form (rLipL32; 21-272) L263S”, which response [5] is on record?
Answer: The response was 0.29 OD450nm.

Question: rLipL32 D195A variant (natural protein) was tested. Which Kd [3] did it give?
Answer: The Kd was 100 nM.

Question: What about the Kd [4] of the same substance?
Answer: The Kd was 120 nM.

Question: rLipL32 D196A variant (natural protein) was tested. Which Kd [3] did it give?
Answer: The Kd was 160 nM.

Question: And the Kd [4]?
Answer: The Kd was 160 nM.
